Results taken from patent US20210253733A1.
Values belong to the substance of their own block, whether it stands above or below them.

Tests used:
[1] = target: human CD163 expressed on human myeloid cells (M2c macrophages, M2 macrophages, in vitro MDSCs) (human) (UniProt Q86VB7); test: flow cytometry, APC-labelled anti-huCD163 on M2c macrophages pre-treated with 200 ug/mL goat control polyclonal antibody
[2] = target: truncated human CD163 ECD SRCR domain 1-5 fragment with C-terminus histidine tag (HEK293-6E) (human) (UniProt Q86VB7); test: binding titration on truncated huCD163 SRCR 1-5
[3] = target: human CD163 ECD with a C-terminal 8 histidine tag (HEK293-6E) (human) (UniProt Q86VB7); test: binding titration on recombinant huCD163 ECD
[4] = target: truncated human CD163 ECD SRCR domain 1-5 fragment with C-terminus histidine tag (HEK293-6E) (human) (UniProt Q86VB7); test: ratio of EC50 on huCD163 SRCR 1-5 to EC50 on huCD163 ECD
[5] = target: purified recombinant human CD163 protein used for SPR (human) (UniProt Q86VB7); test: SPR (Biacore T200), CD163 amine-coupled to chip, antibody as analyte, EDTA buffer
[6] = target: purified recombinant human CD163 protein used for SPR (human) (UniProt Q86VB7); test: SPR (Biacore T200), CD163 amine-coupled to chip, antibody as analyte, calcium-containing buffer
[7] = target: recombinant murine CD163 (R&D Systems, No. 7435-CD-050) (murine) (UniProt Q2VLH6); test: ELISA, plate coated with 5 ug/mL recombinant murine CD163, A450
[8] = target: His-tagged recombinant human CD163 (R&D Systems, No. 1607-CD-050) (human) (UniProt Q86VB7); test: ELISA, plate coated with 5 ug/mL His-tagged recombinant human CD163, HRP anti-mouse IgG F(ab')2, A450
[9] = target: human CD163 expressed on human myeloid cells (M2c macrophages, M2 macrophages, in vitro MDSCs) (human) (UniProt Q86VB7); test: flow cytometry, unconjugated anti-CD163 (MAB1607) with labelled secondary antibody on untreated M2c macrophages

Chain of purified recombinant human CD163 protein used for SPR (human) (Q86VB7 46-1050 limits assumed): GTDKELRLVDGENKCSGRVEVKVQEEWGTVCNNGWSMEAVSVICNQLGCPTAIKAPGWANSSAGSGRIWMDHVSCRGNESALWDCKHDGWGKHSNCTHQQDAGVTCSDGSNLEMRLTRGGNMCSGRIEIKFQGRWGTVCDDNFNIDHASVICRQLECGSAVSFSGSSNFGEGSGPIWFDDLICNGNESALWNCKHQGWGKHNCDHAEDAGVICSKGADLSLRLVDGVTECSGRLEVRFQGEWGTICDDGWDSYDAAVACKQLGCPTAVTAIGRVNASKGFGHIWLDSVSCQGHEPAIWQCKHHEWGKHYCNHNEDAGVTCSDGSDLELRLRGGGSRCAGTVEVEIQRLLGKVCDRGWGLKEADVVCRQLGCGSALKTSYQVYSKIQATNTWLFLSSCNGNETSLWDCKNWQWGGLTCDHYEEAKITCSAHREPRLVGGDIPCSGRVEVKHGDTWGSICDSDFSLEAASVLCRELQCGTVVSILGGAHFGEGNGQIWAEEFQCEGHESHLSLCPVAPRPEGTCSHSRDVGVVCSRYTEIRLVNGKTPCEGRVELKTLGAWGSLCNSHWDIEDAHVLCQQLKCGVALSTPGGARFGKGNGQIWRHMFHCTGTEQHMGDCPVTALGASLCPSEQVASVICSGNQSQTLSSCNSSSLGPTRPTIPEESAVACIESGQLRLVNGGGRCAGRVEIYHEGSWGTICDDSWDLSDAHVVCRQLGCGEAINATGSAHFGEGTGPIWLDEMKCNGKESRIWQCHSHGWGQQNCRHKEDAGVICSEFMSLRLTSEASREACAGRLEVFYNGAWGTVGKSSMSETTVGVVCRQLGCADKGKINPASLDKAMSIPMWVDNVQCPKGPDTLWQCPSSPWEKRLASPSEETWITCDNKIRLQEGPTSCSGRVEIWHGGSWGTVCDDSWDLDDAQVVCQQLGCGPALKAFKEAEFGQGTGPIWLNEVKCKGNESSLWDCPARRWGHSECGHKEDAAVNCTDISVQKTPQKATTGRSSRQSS
Chain of human CD163 ECD with a C-terminal 8 histidine tag (HEK293-6E) (human) (Q86VB7 other isoform, or with tags, fused parts or gaps limits assumed): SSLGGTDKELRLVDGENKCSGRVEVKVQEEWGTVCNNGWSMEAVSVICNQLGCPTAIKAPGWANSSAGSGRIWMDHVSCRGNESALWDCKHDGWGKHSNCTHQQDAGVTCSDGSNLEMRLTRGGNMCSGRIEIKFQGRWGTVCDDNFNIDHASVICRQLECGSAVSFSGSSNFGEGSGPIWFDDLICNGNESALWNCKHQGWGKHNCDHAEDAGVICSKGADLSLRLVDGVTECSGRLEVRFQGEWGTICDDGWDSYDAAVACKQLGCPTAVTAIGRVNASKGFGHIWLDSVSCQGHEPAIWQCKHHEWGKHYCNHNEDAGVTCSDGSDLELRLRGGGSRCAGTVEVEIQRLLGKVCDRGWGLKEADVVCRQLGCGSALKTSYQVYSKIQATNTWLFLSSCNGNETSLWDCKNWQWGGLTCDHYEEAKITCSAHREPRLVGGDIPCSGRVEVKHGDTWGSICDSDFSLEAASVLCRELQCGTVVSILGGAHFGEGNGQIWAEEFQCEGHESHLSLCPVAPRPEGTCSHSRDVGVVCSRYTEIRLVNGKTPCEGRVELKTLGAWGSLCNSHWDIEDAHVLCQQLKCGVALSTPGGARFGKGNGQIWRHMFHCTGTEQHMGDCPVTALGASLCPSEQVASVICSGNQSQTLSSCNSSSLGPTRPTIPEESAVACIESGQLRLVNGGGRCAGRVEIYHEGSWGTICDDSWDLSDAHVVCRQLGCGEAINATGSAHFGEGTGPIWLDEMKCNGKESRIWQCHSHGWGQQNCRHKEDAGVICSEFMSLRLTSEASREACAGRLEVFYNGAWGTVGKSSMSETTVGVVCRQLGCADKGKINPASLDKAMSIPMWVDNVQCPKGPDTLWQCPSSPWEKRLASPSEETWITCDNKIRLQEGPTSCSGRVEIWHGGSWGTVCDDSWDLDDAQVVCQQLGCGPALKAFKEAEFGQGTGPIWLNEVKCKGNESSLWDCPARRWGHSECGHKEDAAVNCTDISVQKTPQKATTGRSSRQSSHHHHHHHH
Chain of truncated human CD163 ECD SRCR domain 1-5 fragment with C-terminus histidine tag (HEK293-6E) (human) (Q86VB7 42-578 limits assumed): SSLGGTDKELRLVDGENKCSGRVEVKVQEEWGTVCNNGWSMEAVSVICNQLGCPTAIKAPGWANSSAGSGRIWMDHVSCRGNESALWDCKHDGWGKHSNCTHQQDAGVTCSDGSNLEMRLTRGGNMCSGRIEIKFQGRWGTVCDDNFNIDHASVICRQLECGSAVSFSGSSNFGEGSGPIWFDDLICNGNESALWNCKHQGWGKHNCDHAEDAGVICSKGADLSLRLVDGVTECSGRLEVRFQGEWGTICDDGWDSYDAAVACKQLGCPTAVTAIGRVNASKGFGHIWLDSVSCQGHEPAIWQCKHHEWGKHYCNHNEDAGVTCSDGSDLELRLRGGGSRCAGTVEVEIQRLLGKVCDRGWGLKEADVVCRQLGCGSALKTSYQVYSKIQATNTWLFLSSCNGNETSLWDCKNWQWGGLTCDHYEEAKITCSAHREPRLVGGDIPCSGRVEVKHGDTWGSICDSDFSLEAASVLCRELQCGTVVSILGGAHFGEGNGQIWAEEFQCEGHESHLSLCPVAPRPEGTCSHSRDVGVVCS
Chain of human CD163 expressed on human myeloid cells (M2c macrophages, M2 macrophages, in vitro MDSCs) (human) (Q86VB7 42-1114, tags or fused parts left off): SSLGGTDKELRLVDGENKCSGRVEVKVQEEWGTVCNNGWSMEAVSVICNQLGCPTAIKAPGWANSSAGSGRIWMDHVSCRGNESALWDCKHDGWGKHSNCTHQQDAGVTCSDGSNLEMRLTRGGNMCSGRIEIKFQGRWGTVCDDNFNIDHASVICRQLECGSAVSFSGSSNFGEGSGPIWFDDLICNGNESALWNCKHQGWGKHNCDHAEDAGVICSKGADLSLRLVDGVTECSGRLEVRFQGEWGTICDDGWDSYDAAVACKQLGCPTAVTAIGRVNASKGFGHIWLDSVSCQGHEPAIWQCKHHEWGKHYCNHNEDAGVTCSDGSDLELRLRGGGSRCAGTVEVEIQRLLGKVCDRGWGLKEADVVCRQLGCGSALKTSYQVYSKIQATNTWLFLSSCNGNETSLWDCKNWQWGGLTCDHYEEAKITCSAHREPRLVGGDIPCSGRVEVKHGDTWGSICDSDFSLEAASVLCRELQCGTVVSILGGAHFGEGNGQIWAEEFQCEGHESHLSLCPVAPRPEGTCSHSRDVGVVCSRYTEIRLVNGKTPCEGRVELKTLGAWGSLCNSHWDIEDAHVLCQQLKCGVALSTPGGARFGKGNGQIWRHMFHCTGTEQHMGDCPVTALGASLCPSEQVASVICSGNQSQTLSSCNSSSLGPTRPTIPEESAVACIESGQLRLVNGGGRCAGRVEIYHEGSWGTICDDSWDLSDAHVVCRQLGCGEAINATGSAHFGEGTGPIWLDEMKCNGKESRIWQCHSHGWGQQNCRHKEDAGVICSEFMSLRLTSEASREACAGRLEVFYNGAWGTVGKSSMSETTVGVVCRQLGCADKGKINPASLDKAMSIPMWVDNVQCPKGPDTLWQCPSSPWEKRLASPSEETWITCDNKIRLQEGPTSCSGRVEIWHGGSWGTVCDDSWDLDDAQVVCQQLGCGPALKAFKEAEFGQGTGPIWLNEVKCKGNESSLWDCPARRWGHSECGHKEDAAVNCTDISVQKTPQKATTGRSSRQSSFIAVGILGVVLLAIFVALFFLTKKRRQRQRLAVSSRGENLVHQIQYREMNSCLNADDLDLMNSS
Chain of recombinant murine CD163 (R&D Systems, No. 7435-CD-050) (murine) (Q2VLH6 39-1045 limits assumed): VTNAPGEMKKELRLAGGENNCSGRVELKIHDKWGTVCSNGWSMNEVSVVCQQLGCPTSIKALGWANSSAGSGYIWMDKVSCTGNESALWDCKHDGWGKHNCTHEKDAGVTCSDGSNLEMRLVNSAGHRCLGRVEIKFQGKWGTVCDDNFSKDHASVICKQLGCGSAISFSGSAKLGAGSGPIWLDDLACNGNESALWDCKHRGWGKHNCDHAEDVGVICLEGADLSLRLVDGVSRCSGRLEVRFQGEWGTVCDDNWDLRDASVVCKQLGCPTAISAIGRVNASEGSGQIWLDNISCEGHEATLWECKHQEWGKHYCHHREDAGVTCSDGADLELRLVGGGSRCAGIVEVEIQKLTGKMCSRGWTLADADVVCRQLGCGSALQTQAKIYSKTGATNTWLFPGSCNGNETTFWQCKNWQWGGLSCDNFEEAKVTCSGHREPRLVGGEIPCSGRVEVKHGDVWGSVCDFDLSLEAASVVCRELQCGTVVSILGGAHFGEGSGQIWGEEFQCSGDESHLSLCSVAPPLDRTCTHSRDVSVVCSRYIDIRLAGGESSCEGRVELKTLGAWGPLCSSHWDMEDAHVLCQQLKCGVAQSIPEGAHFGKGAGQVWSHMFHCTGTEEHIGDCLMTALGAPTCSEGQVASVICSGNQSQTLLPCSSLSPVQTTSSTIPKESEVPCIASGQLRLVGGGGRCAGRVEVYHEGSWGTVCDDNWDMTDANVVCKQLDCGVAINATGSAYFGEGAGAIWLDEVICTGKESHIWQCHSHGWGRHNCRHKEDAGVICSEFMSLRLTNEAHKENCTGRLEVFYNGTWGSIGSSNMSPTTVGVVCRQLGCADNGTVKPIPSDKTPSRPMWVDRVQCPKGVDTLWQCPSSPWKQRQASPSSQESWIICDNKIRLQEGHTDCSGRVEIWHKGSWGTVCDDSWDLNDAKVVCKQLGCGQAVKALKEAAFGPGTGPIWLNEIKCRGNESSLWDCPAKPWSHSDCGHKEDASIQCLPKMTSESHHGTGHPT

Substance: anti-CD163 clone GHI/61 (antibody)
Kd [5]: 12 nM
koff [5]: 0.000178 s⁻¹
kon [5]: 14800 M⁻¹ s⁻¹
Kd [6]: 63 nM
koff [6]: 0.000467 s⁻¹
kon [6]: 7320 M⁻¹ s⁻¹

Substance: 215927 (antibody)
EC50 [2]: 0.02 nM
EC50 [3]: 0.017 nM
Ratio SRCR 1-5/ECD (EC50) [4]: 1.17

Substance: control anti-huCD163 antibody, murine IgG1 (R&D Systems, #MAB1607)
EC50 (read off the curve) [8]: 0.01 nM
EC50 (read off the curve) [9]: 3 nM

Next, values leading:

EC50 (read off the curve) [1]: 10 nM
Substance: APC-labeled anti-huCD163 antibody (R&D Systems, #FAB1607A)

EC50 [2]: 0.05 nM
EC50 [3]: 0.052 nM
Ratio SRCR 1-5/ECD (EC50) [4]: 0.96
Substance: EDHu-1 (antibody)

EC50 [3]: 0.061 nM
Substance: RM3/1 (antibody)

EC50 (read off the curve) [7]: 0.02 nM
Substance: commercially available rat anti-muCD163 antibody (Thermo Fisher Scientific #14-1631-82)
